How the values were obtained:
[1] = target: Human TNFa (recombinant) (human) (UniProt P01375); test: SPR (Biacore), average of three BYL batches, TNFa as analyte
[2] = target: huCD64/human FcRI (R&D Systems 1257FC) (human) (UniProt P12314); test: SPR (Biacore), average of three BYL batches, CD64 as analyte
[3] = target: huCD64/human FcRI (R&D Systems 1257FC) (human) (UniProt P12314); test: SPR (Biacore), antibody captured on Protein A CM5 chip, CD64 as analyte
[4] = target: Human TNFa (recombinant) (human) (UniProt P01375); test: SPR (Biacore), antibody captured on Protein A CM5 chip, TNFa as analyte

Substance | Kd [1] [nM] | Kd [2] [nM] | Kd [3] [nM] | koff [3] [s⁻¹] | kon [3] [M⁻¹ s⁻¹] | Kd [4] [nM] | koff [4] [s⁻¹] | kon [4] [M⁻¹ s⁻¹]
Humira CF DAK (adalimumab produced in BYL/ALiCE, batch DAK) (antibody) |  |  | 0.346 |  |  |  |  | 
Humira CF CHJ (adalimumab produced in BYL/ALiCE, batch CHJ) (antibody) |  |  | 0.346 |  |  |  |  | 

Results, then the substance that gave them:

Kd [1] [nM] | Kd [2] [nM] | Kd [3] [nM] | koff [3] [s⁻¹] | kon [3] [M⁻¹ s⁻¹] | Kd [4] [nM] | koff [4] [s⁻¹] | kon [4] [M⁻¹ s⁻¹] | Substance
0.134 | 0.353 |  |  |  |  |  |  | BYL-mAb (adalimumab produced in BYL, average of the three batches) (antibody)
 |  | 0.367 | 0.000252 | 686000 | 0.122 | 5.83e-05 | 478000 | Humira CF DB3 (adalimumab produced in BYL/ALiCE, batch DB3) (antibody)
 |  | 0.158 | 0.000152 | 959000 | 0.185 | 8.37e-05 | 453000 | Reference IgG Adalinumab (Humira) (ABIN5668145), commercial adalimumab reference product expressed from CHO cells (antibody)

From patent US20260072038A1
